T1: human CNTF receptor alpha-component on MG87/CNTFR fibroblasts (human, UniProt P26992 23-342)
T1 construct: whole, on cells; Mouse fibroblast cell line transfected with the human CNTF alpha receptor gene; also called CNTFRalpha; MG87/huCNTFR
T1 sequence (looked up): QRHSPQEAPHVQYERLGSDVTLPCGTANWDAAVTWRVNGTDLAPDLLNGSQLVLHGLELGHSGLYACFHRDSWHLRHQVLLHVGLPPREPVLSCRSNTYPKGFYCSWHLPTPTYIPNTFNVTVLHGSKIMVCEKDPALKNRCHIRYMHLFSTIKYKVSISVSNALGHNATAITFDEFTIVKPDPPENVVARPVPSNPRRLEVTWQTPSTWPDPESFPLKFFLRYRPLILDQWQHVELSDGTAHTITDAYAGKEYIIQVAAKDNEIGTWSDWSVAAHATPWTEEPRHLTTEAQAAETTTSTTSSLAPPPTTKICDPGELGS

T2: rat CNTF receptor on rat superior cervical ganglia (SCG) neurons (rat, UniProt Q08406 23-342)
T2 construct: whole, on cells; The neurons carry the endogenous receptor, and the other receptor components may also be present; also called rat receptor
T2 sequence (looked up): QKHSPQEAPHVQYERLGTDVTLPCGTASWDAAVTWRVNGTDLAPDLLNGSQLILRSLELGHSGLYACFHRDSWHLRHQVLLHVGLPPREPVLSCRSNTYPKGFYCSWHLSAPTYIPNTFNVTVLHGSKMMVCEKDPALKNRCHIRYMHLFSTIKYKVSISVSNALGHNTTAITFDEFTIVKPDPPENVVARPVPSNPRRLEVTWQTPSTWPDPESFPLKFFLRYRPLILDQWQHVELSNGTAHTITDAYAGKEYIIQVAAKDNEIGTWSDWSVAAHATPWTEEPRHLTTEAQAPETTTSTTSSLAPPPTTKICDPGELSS


Assays:
[1] = biological target: T1, human CNTF receptor alpha-component on …; test: competition binding experiments, data not shown; cells not given
[2] = biological target: T2, rat CNTF receptor on rat superior …; test: competition with 125I-rat CNTF on rat SCG neurons
Procedure: Growth medium consisted of Ham's nutrient mixture F12 with 10% heat-inactivated fetal bovine serum (Hyclone), nerve growth factor (NGF) (100 ng/ml), penicillin (50 U/ml) and streptomycin (50 µg/ml). Cultures were maintained at 37° C. in a humidified 95% air/5% CO_2 atmosphere. Ganglion non-neuronal cells were eliminated by treatment with araC (10 µM) on days 1 and 3 of culture. Cultures were fed 3 times/week and were routinely used for binding assays within 2 weeks.
(§1) Binding was performed directly on cell monolayers. Cells in culture wells were washed once with assay buffer consisting of phosphate buffered saline (PBS; pH 7.4), 0.1 mM bacitracin, 1 mM PMSF, 1 µg/ml leupeptin, and 1 mg/ml BSA. […] Non-specific binding was determined in the presence of 1,000-fold excess of unlabelled CNTF. Specific binding towards MG87/CNTFR was 80–90%. Data were analyzed using the […] program (ISI, Philadelphia, Pa.).

[3] = biological target: T1, human CNTF receptor alpha-component on …; test: competition with 125I-rat CNTF on MG87/CNTFR cells
Procedure: as §1

binding result [1]	IC50 [2] [nM]	IC50 [3] [nM]	Binder	other results
binds			RPN192 (ligand, Chimeric CNTF) MAFTEHSPLTPHRRDLCSRSIWLARKIRSDLTALTESYVKHQGLNKNINLDSADGMPVASTDQWSELTEAERLQENLQAYRTFQGMLTKLLEDQRVHFTPTEGDFHQAIHTLMLQVSAFAYQLEELMVLLEQKIPENEADGMPATVGDGGLFEKKLWGLKVLQELSQWTVRSIHDLRFISSHQTGIPARGSHYIANNKKM	
	25	30	recombinant human CNTF (ligand, also called rHCNTF; hCNTF) MAFTEHSPLTPHRRDLCSRSIWLARKIRSDLTALTESYVKHQGLNKNINLDSADGMPVASTDQWSELTEAERLQENLQAYRTFHVLLARLLEDQQVHFTPTEGDFHQAIHTLLLQVAAFAYQIEELMILLEYKIPRNEADGMPINVGDGGLFEKKLWGLKVLQELSQWTVRSIHDLRFISSHQTGIPARGSHYIANNKKM	fold less potent than unlabelled rat CNTF [2]: 90 fold; fold less potent than rat CNTF [3]: 12 fold
	0.3		RPN219 (ligand, Expressed in E. coli; also called CNTF RPN219) MAFTEHSPLTPHRRDLCSRSIWLARKIRSDLTALTESYVKHQGLNKNINLDSVDGVPVASTDRWSEMTEAERLQENLQAYRTFHVLLARLLEDQQVHFTPTEGDFHQAIHTLLLQVAAFAYQIEELMILLEYKIPRNEADGMPINVGDGGLFEKKLWGLKVLQELSQWTVRSIHDLRFISSHQTGIPARGSHYIANNKKM	
binds			RPN222 (ligand, Chimeric CNTF) MAFTEHSPLTPHRRDLCSRSIWLARKIRSDLTALTESYVKHQGLNKNINLDSVDGMPVASTDQWSEMTEAERLQENLQAYRTFHVLLARLLEDQQVHFTPTEGDFHQAIHTLLLQVAAFAYQIEELMILLEYKIPRNEADGMPINVGDGGLFEKKLWGLKVLQELSQWTVRSIHDLRFISSHQTGIPARGSHYIANNKKM	
binds			RPN218 (ligand, Chimeric CNTF) MAFTEHSPLTPHRRDLCSRSIWLARKIRSDLTALMESYVKHQGLNKNINLDSVDGVPVASTDRWSEMTEAERLQENLQAYRTFHVLLARLLEDQQVHFTPTEGDFHQAIHTLLLQVAAFAYQIEELMILLEYKIPRNEADGMPINVGDGGLFEKKLWGLKVLQELSQWTVRSIHDLRFISSHQTGIPARGSHYIANNKKM	
binds			RPN187 (ligand, Chimeric CNTF) MAFAEQTPLTLHRRDLCSRSIWLARKIRSDLTALMESYVKHQGLNKNINLDSADGMPVASTDQWSELTEAERLQENLQAYRTFHVLLARLLEDQQVHFTPTEGDFHQAIHTLLLQVAAFAYQIEELMILLEYKIPRNEADGMPINVGDGGLFEKKLWGLKVLQELSQWTVRSIHDLRFISSHQTGIPARGSHYIANNKKM	
		5.6	RPN228 (ligand, Expressed in E. coli; also called RG228; rHCNTF,63QR) MAFTEHSPLTPHRRDLCSRSIWLARKIRSDLTALTESYVKHQGLNKNINLDSADGMPVASTDRWSELTEAERLQENLQAYRTFHVLLARLLEDQQVHFTPTEGDFHQAIHTLLLQVAAFAYQIEELMILLEYKIPRNEADGMPINVGDGGLFEKKLWGLKVLQELSQWTVRSIHDLRFISSHQTGIPARGSHYIANNKKM	
	0.28	2.8	recombinant rat CNTF (ligand, also called unlabelled rat CNTF) MAFAEQTPLTLHRRDLCSRSIWLARKIRSDLTALMESYVKHQGLNKNINLDSVDGVPVASTDRWSEMTEAERLQENLQAYRTFQGMLTKLLEDQRVHFTPTEGDFHQAIHTLMLQVSAFAYQLEELMVLLEQKIPENEADGMPATVGDGGLFEKKLWGLKVLQELSQWTVRSIHDLRVISSHQMGISALESHYGAKDKQM	
binds			RPN189 (ligand, Chimeric CNTF) MAFAEQTPLTLHRRDLCSRSIWLARKIRSDLTALMESYVKHQGLNKNINLDSVDGVPVASTDRWSEMTEAERLQENLQAYRTFQGMLTKLLEDQRVHFTPTEGDFHQAIHTLMLQVSAFAYQLEELMVLLEQKIPENEADGMPATVGDGGLFEKKLWGLKVLQELSQWTVRSIHDLRFISSHQTGIPARGSHYIANNKKM	
binds			RPN186 (ligand, Chimeric CNTF) MAFTEHSPLTPHRRDLCSRSIWLARKIRSDLTALTESYVKHQGLNKNINLDSVDGVPVASTDRWSEMTEAERLQENLQAYRTFQGMLTKLLEDQRVHFTPTEGDFHQAIHTLMLQVSAFAYQLEELMVLLEQKIPENEADGMPATVGDGGLFEKKLWGLKVLQELSQWTVRSIHDLRVISSHQMGISALESHYGAKDKQM	

Reference: patent US6680291
